According to the DeepSol protein solubility set:

Assay: soluble on expression in E. coli; label from the status in PepcDB or PDB records

Sequence	soluble on expression in E. coli
MKAPAFTEAKLQDPIPAKIYDKNGELVKTLDNGQRHEHVNLKDVPKSMKDAVLATEDNRFYEHGALDYKRLFGAIGKNLTGGFGSEGASTLTQQVVKDAFLSQHKSIGRKAQEAYLSYRLEQEYSKDDIFQVYLNKIYYSDGVTGIKAAAKYYFNKDLKDLNLAEEAYLAGLPQVPNNYNIYDHPKAAEDRKNTVLYLMHYHKRITDKQWEDAKKIDLKANLVNRTPEERQNIDTNQDSEYNSYVNFVKSELMNNKAFKDENLGNVLQSGIKIYTNMDKDVQKTLQNDVDNGSFYKNKDQQVGATILDSKTGGLVAISGGRDFKDVVNRNQATDPHPTGSSLKPFLAYGPAIENMKWATNHAIQDESSYQVDGSTFRNYDTKSHGTVSIYDALRQSFNIPALKAWQSVKQNAGNDAPKKFAAKLGLNYEGDIGPSEVLGGSASEFSPTQLASAFAAIANGGTYNNAHSIQKVVTRDGETIEYDHTSHKAMSDYTAYMLAEMLKGTFKPYGSAYGHGVSGVNMGAKTGTGTYGAETYSQYNLPDNAAKDVWINGFTPQYTMSVWMGFSKVKQYGENSFVGHSQQEYPQFLYENVMSKISSRDGEDFKRPSSVSGSIPSINVSGSQDNNTTNRSTHGGSDTSANSSGTAQSNNNTRSQQSRNSGGLTGIFN	soluble
MKATGFMGPCYAKAMATRYRFGLEEYERLFRGIRDVELLAGEVYRMSPIGPKHAWSVARLNRLFTEALGDRAVVWPQNPIRIPPHSEPQPDLALLRPKSYGEGLPTPEDVLLLVEVAETSLEHDQGLKLSLYAQAGIPEVWVLDLKENRLHVYRTPKAGVYTEHRILLPGEEAEPLAFPGVRIPWS	soluble
MKAVKPMTDNISVLIMGVDESEIRDKNYGKATRTDALLLATINKNDKSVKLVSIPRDSRVYIKSRDKYDKITHAHVFGGVDSTIDTVENFLDVPVDYYVKFNFKSFIKIVDSLGGITVDVPVEFTEQNSKDEADAVHLKKGRQHLNGEEALALARTRHIDSDYMRGQRQQLVLEAIAQKALSLNSINKIGGLLDAVDKDLKTNLTFDDMMTIAKNSMDSNLKMDKMQVEGTDKYIGGIYYYVPNEKSVNTISTTLQEHLGVTNKNEHKKLLEHHHHHH	soluble
MKAVTYDTDSELAYIYVLPPKKNRNVRTEELRVNDCLLLDISQDGKIAGFECFGEAAHLCAPFAGKSRLYVKDSDGYHFRVCQHASVRSCYTVYRVTFCFSDGDYQEFAGFDLDGTMYHSAFLQRLTEKLEHHHHHH	not soluble
MKDKIIDNAITLFSEKGYDGTTLDDIAKSVNIKKASLYYHFDSKKSIYEQSVKCCFDYLNNIIMMNQNKSNYSIDALYQFLFEFIFDIEERYIRMYVQLSNTPEEFSGNIYGQIQDLNQSLSKEIAKFYDESKIKMTKEDFQNLILLFLESWYLKASFSQKFGAVEESKSQFKDEVYSLLNIFLKK	not soluble
MKDLDFSKKPLIGVVHLKPLPGSPRYGGDFEEVIEWAIRDAKTYEEAGFDGIIVENFGDSPFSKTLPREVIPAFTVVAKAVKKEVSLPLGINALRNDCIVAYSIAHAVGGSFIRVNVLTGVAFTDQGIIEGCARELWNVKRIIGGDILTLADVHVKHAVHFTNFEDAVKDTVERGLADGIIVTGRRTGESISLEDLILAKRVSSIPVLVGSGVNPRNFRTLFKYADGFIVGTWVKENGKINNPVSLERAKILVRMKNSLMGVLEHHHHHH	not soluble
MKDLKLDEHTGLVLEGGGMRGVFTCGVLDYLMDHDIRFPYAIGVSAGACNGLSYASRQRGRAKFSNIDLLEKYNYIGLKHLLRKRNILDFDLLFNEFPEHILPYDYDTYFASPERFVMVTTNCMTGEANYFEEKRDKSRVIDIVRASSSLPFVCPVTYVDGVPMLDGGIVDSIPLQRAIADGYTRNVVILTRNRGYRKDTKDIRIPSFVYRKYPKLREALSRRCAVYNEQLEMVEQMEDEGKIIVIRPQKPVMVDRIERDVQKLTEFYEEGYDCARNLFEF	soluble
MKDLVDTTEMYLRTIYELEEEGVTPLRARIAERLEQSGPTVSQTVARMERDGLVVVASDRSLQMTPTGRTLATAVMRKHRLAERLLTDIIGLDINKVHDEASRWEHVMSDEVERRLVKVLKDVSRSPFGNPIPGLDELGVGNSDAAAPGTRVIDAATSMPRKVRIVQINEIFQVETDQFTQLLDADIRVGSEVEIVDRDGHITLSHNGKDVELLDDLAHTIRIEEL	soluble
MKDSLQTIGVFVRPTHYQNPLFEKLEQAKEWVLKLLEDEGFESFMIDSLDGAKDARLIEKADAFLCLGGDGTILGALRMTHSYNKPCFGVRIGNLGFLSAVELNGLKDFLQDFKQDRIKLEEHLALEGRIGKTSFYAINEIVIAKKKALGVLDIKAYAGHTPFNTYKGDGLIIATPLGSTAYNLSAHGPIVHALSQSYILTPLCDFSLTQRPLVLGAEFCLNFCAHEDALVVIDGQATYDLKANQPLYIQKSPTTTKLLQKNSRDYFKVLKEKLLWGESPSKKRLEHHHHHH	soluble
MKDVIEKRHIRAEVPIELTWDLSDLYESDKKWETALRVLTDDIKKLDAFKGQLHTSPTTLLHCLLLEEELLMKLTKLYSYANLKESTDRTNPVIQANSSKIAALWTKVHTALSFIHNEILSLEEGTIEKYLTKETKLEPFRKSLLDILQKRQYTLSPETEEALAALGEVHSSPYKIYGMTKLADMDFNSIQDEQGNELPVSFSLFESKYEFSPSVDIRRKAYSSFVSTLKRYKNTVATTYATEVKKQVTLSRLRKFESVTHMLLEPQNVPLEMYNNQLDIIYKELAPHMRRFADLKKKVLGLDQMLFCDLHAPLDPEFNPAITYEEAGKLIQDSLQVLGDEYSAIIKKGFKERWVDLADNVGKSTGAFCSSPYGSHPYILITWQNTMRGCFTLAHEFGHAGHFYLANKNQRIMNVRPSMYFVEAPSTMNELLLAQHLLATTDDKRMRRWVILQLLGTYYHNFVTHLLEGEYQRRVYSLAEEGEALTATTLTEIKTNVLSTFWGNSVEIDEGAGLTWMRQPHYYMGLYSYTYSAGLTASTAVAQMIKEEGQPAVDRWLDVLRAGGTMKPLELMKHAGVDMSKPDAIRKAVSYVGSLIDELERSYEE	not soluble
MKDVVEYLVRYLVDRPEAVRVQVRRGKEGTVYLVEVAPEDKGRLIGKGGRVIESLRTVVRAYAKRKVGVEVR	soluble
MKEGMKVVLVGSPGIEGTWILAKDYDQLLLEKGISREIIEKAKEFKKDIVVQPKALSILDYVVAMHDATEGGIMQAMLEVAKASGYTVSINLDKIVLRRETKIITKALNIDPLRLISSGSFIAVSNTPEKILERISEAYIIGEIKRGDPVLEIK	soluble
MKEKIPFYNEKEFNEMMKKTKKGTFSGWYIINPENNSVEFSGSFNRQFKLNKPIIPVNTEYVTRKEFNEYKDSNDQRLIKIETTLTAQGEQINKLTQTVEKQGEQIRELQVEQKAQGEQIKAQGETLKLILQTLQKMSDRLDKIDPPK	soluble
MKELETRIIDIDVEKLRETLNKLGAKNVKRENQTNDIFDFPDRKLLDKKGYARIRTVEDLINNKTVYFMTTKKMLSQDKFKVMEENETIIEDGAMGKNIFKSLGLELFETIKKYRESYKYKDSLIEIDINDPSFCPFPYIEIETSSEEKLNEILIDLGYSMEDTTSKTIYEILKDKGISPDSNKKGLLEHHHHHH	soluble
MKENAVRRANDPKRREKIIQATLEAVKTYGVHAVTHRKIAAIAQVPLGSMTYYFAGMDALLSEAFTLFTENMSRQYQDFFAQVTDAEGACQAITEMIYGSQVTTPDNMALMYQLYAYASDKPALKIVMQNWMQRSQNTLAQWFDAQTARALDAFIEGMTLHFVTDRTPLAREAILQMVKRIAGVSMSCHSALGNKKPTNLEPKWRG	not soluble
MKETTIYGRLVMAVKNTAQVVIGGKIITLGGYESEEYFQKVASYINNKIAELSEMPGYTRQPVETKHTLLSLNVTDDYFKAKKQAEIFEQDLQQKDQEMYELKHELIALRMKIEETEKNAQEAQQQKELLEGKVKELNDEIDKLLK	not soluble
MKFDFPQVDLPCEILAWNDVTEDILNIYKQSCRLKAGIFAICTEGKMTATINLIDYEIKPNDLITLLPGTIIQFRERTEKVRLCFAGFSSECVERINLIKSMVSSFSKITECPIVELQEDIASYLIDYFSLLARVTCDEKLSLPSEMTEVSLRSILTAVGLIYQRYSSKNHNTNRKEEICRELVGLVTEHYTEERRAQFYADKLGISLQHLSTTVKQVTGRNVLDVIAYVVIIDAKAKLKSSNMTIQEIAYSLNFPSASFFGKYFRRYVGMSPLEFRNS	not soluble
